Reference: the Human Domainome abundance scans (Beltran et al. 2025)
± gives the uncertainty stated by the source.

B1: Gamma-crystallin D, residues 90 to 170; numbered along this chain, P07320 (parent)
chain: IRLYEREDYRGQMIEFTEDCSCLQDRFRFNEIHSLNVLEGSWVLYELSNYRGRQYLLMPGDYRRYQDWGATNARVGSLRRV

Variants of: B1
Test: abundance fitness (aPCA) (normalised: wild type 0, dead -1); higher = more abundant; growth selection in yeast, the domain comes from the species named
Conditions: Homo sapiens

Variant	abundance fitness
V43D	-0.017 ± 0.17
V43H	-0.129 ± 0.45
V43M	0.079 ± 0.11
V43K	-0.148 ± 0.13
V43G	-0.026 ± 0.064
V43T	-0.113 ± 0.17
V43E	0.204 ± 0.13
V43A	-0.059 ± 0.11
V43L	-0.1 ± 0.12
V43S	-0.029 ± 0.081
V43P	-0.844 ± 0.2
V43Y	-0.229 ± 0.18
V43N	-0.157 ± 0.28
V43F	-0.125 ± 0.14
V43W	-0.028 ± 0.12
V43R	0.006 ± 0.067
G40M	-0.13 ± 0.12
G40A	-0.014 ± 0.08
G40K	-0.187 ± 0.11
G40V	0.025 ± 0.08
G40S	-0.021 ± 0.083
G40E	0.076 ± 0.15
G40L	-0.143 ± 0.066
G40F	-0.031 ± 0.17

Variant	abundance fitness
G40Q	-0.053 ± 0.059
G40Y	-0.104 ± 0.33
G40C	-0.039 ± 0.17
G40P	-0.077 ± 0.099
G40R	-0.142 ± 0.066
G40I	-0.113 ± 0.11
G40T	-0.041 ± 0.11
G40D	0.011 ± 0.11
G40N	-0.228 ± 0.14
G40H	0.132 ± 0.32
W42P	-0.923 ± 0.25
W42Q	-0.969 ± 0.37
W42I	-0.029 ± 0.2
W42M	-0.388 ± 0.099
W42H	-0.38 ± 0.15
W42V	0.114 ± 0.069
W42Y	0.166 ± 0.13
W42D	-1 ± 0.47
W42S	-0.865 ± 0.1
W42R	-0.994 ± 0.092
W42G	-1.1 ± 0.1
W42A	-0.554 ± 0.1
W42T	-0.492 ± 0.15
W42L	-0.201 ± 0.061

Variant	abundance fitness
W42N	-0.774 ± 0.28
W42E	-1.07 ± 0.25
W42F	-0.105 ± 0.12
W42C	-0.272 ± 0.082
R51E	0.158 ± 0.14
R51N	0.139 ± 0.21
R51I	-0.321 ± 0.21
R51Q	-0.132 ± 0.15
R51D	-0.027 ± 0.19
R51K	-0.037 ± 0.17
R51H	-0.122 ± 0.28
R51F	-0.147 ± 0.17
R51V	0.025 ± 0.082
R51C	-0.023 ± 0.14
R51T	0.056 ± 0.12
R51P	-0.951 ± 0.19
R51L	0.034 ± 0.075
R51Y	-0.108 ± 0.31
R51S	-0.039 ± 0.079
R51W	-0.471 ± 0.12
R51A	-0.024 ± 0.08
R51G	0.064 ± 0.079
E46R	-0.273 ± 0.068
E46P	-0.199 ± 0.096

Variant	abundance fitness
E46N	-0.343 ± 0.26
E46W	-0.783 ± 0.1
E46G	-0.263 ± 0.068
E46A	-0.083 ± 0.086
E46Y	-0.626 ± 0.42
E46M	-0.095 ± 0.15
E46H	-0.161 ± 0.23
E46C	-0.201 ± 0.1
E46T	-0.047 ± 0.099
E46S	-0.113 ± 0.1
E46F	-0.197 ± 0.17
E46V	-0.325 ± 0.082
E46Q	-0.012 ± 0.11
S48L	-0.204 ± 0.087
S48K	-0.017 ± 0.15
S48C	0.009 ± 0.1
S48F	-0.124 ± 0.12
S48R	-0.14 ± 0.073
S48Q	-0.191 ± 0.17
S48E	0.208 ± 0.14
S48T	-0.134 ± 0.36
S48G	-0.049 ± 0.065
S48V	-0.159 ± 0.078
S48Y	-0.194 ± 0.27

Variant	abundance fitness
S48I	-0.152 ± 0.15
S48M	-0.166 ± 0.15
S48D	0.138 ± 0.12
Y55R	0.014 ± 0.081
Y55Q	-0.006 ± 0.14
Y55L	0.107 ± 0.082
Y55H	-0.018 ± 0.27
Y55T	0.187 ± 0.14
Y55M	-0.039 ± 0.18
Y55V	0.082 ± 0.11
Y55W	-0.001 ± 0.11
Y55E	0.241 ± 0.1
Y55C	-0.061 ± 0.5
Y55I	0.298 ± 0.22
Y55G	0.017 ± 0.066
Y55P	-1.07 ± 0.17
Y55K	0.087 ± 0.12
Y55D	-0.23 ± 0.18
Y55S	0.126 ± 0.12
Y55F	-0.044 ± 0.18
G52Q	-0.599 ± 0.23
G52K	-0.849 ± 0.27
G52F	-0.583 ± 0.47
G52R	-0.51 ± 0.093

Variant	abundance fitness
G52C	-0.421 ± 0.12
G52W	-0.697 ± 0.11
G52H	-0.43 ± 0.19
G52V	-0.919 ± 0.13
G52N	-0.705 ± 0.31
G52I	-0.943 ± 0.32
G52D	-0.775 ± 0.25
G52E	-0.493 ± 0.073
G52L	-0.432 ± 0.1
G52M	-0.57 ± 0.23
G52S	-0.389 ± 0.08
G52A	-0.489 ± 0.072
G52T	-1.07 ± 0.3
E39C	-0.156 ± 0.12
E39W	-0.176 ± 0.1
E39I	-0.03 ± 0.22
E39K	-0.065 ± 0.14
E39M	-0.054 ± 0.18
E39G	0.084 ± 0.075
E39A	0.074 ± 0.079
E39P	-0.78 ± 0.18
E39D	-0.039 ± 0.17
E39Q	-0.084 ± 0.2
E39F	-0.262 ± 0.31

Variant	abundance fitness
E39R	0.016 ± 0.069
E39S	-0.024 ± 0.077
E39L	-0.061 ± 0.079
E39H	0.165 ± 0.24
E39T	0.059 ± 0.11
Q54S	0.013 ± 0.1
Q54W	-0.39 ± 0.11
Q54E	0.018 ± 0.14
Q54K	-0.052 ± 0.13
Q54C	-0.206 ± 0.11
Q54I	-0.245 ± 0.17
Q54T	0.035 ± 0.11
Q54D	0.007 ± 0.19
Q54G	-0.203 ± 0.12
Q54P	-0.036 ± 0.094
Q54R	-0.066 ± 0.12
Q54Y	-0.119 ± 0.26
Q54H	-0.117 ± 0.14
Q54A	-0.119 ± 0.093
Q54M	-0.261 ± 0.11
Q54V	-0.193 ± 0.085
Q54L	-0.149 ± 0.11
Y50Q	-0.197 ± 0.14
Y50W	-0.283 ± 0.12

Variant	abundance fitness
Y50C	-0.44 ± 0.24
Y50D	-0.693 ± 0.17
Y50H	-0.052 ± 0.3
Y50I	-0.658 ± 0.44
Y50A	-0.493 ± 0.094
Y50M	-0.144 ± 0.14
Y50K	-0.234 ± 0.21
Y50G	-0.231 ± 0.059
Y50R	-0.19 ± 0.081
Y50L	-0.383 ± 0.075
Y50N	0.003 ± 0.16
Y50S	-0.501 ± 0.13
Y50V	-0.979 ± 0.19
L44Y	-0.073 ± 0.14
L44H	-0.721 ± 0.26
L44Q	-0.563 ± 0.25
L44G	-0.024 ± 0.057
L44A	0.006 ± 0.12
L44N	-0.938 ± 0.4
L44D	-0.93 ± 0.2
L44F	-0.021 ± 0.16
L44P	-1.04 ± 0.28
L44R	-1.17 ± 0.18
L44T	-0.03 ± 0.12

Variant	abundance fitness
L44I	0.048 ± 0.2
L44V	0.035 ± 0.1
L44W	-0.414 ± 0.1
L44C	-0.093 ± 0.12
N49A	-0.109 ± 0.076
N49K	-0.086 ± 0.18
N49P	-0.182 ± 0.11
N49I	-0.485 ± 0.21
N49L	0.045 ± 0.094
N49R	-0.107 ± 0.059
N49S	-0.09 ± 0.082
N49F	-0.135 ± 0.19
N49E	0.054 ± 0.11
N49Q	0.015 ± 0.12
N49Y	-0.03 ± 0.19
N49T	-0.561 ± 0.19
N49G	-0.074 ± 0.059
N49M	0.008 ± 0.15
L47M	-0.162 ± 0.21
L47W	0.048 ± 0.074
L47V	-0.142 ± 0.077
L47R	0.055 ± 0.058
L47N	-0.014 ± 0.49
L47G	-0.027 ± 0.069

Variant	abundance fitness
L47F	0.008 ± 0.2
L47E	-0.12 ± 0.16
L47Q	0.084 ± 0.13
L47A	-0.037 ± 0.12
L47P	-0.989 ± 0.18
L47Y	-0.183 ± 0.19
L47I	-0.16 ± 0.21
L47D	0.147 ± 0.14
L47S	0.074 ± 0.072
L47K	-0.221 ± 0.38
L47H	-0.072 ± 0.21
M58G	0.093 ± 0.052
M58H	0.008 ± 0.18
M58E	0.043 ± 0.11
M58Q	0.066 ± 0.12
M58L	0.015 ± 0.087
M58C	0.074 ± 0.12
M58N	0.037 ± 0.17
M58D	0.021 ± 0.13
M58A	0.032 ± 0.065
M58F	-0.073 ± 0.17
M58P	0.201 ± 0.11
M58I	-0.047 ± 0.13
Y45L	-0.708 ± 0.13

Variant	abundance fitness
Y45E	-1.04 ± 0.19
Y45H	-0.151 ± 0.19
Y45N	-0.507 ± 0.29
Y45C	-0.273 ± 0.14
Y45R	-0.439 ± 0.072
Y45A	-0.347 ± 0.083
Y45T	-0.07 ± 0.097
Y45P	-0.553 ± 0.15
Y45G	-0.441 ± 0.061
Y45S	-0.157 ± 0.089
Y45M	-0.401 ± 0.13
Y45D	-1.01 ± 0.24
Y45Q	-0.395 ± 0.19
Y45V	-0.88 ± 0.14
L57W	-0.623 ± 0.13
L57D	-0.971 ± 0.39
L57T	-0.016 ± 0.17
L57A	-0.071 ± 0.12
L57Y	-0.13 ± 0.18
L57F	-0.194 ± 0.23
L57M	0.029 ± 0.25
L57C	-0.029 ± 0.13
L57H	0.049 ± 0.4
L57K	-0.173 ± 0.3

Variant	abundance fitness
L57R	-0.376 ± 0.11
L57E	-0.91 ± 0.19
S41R	0.021 ± 0.077
S41G	0.064 ± 0.062
S41P	-0.171 ± 0.097
S41N	-0.175 ± 0.23
S41A	-0.222 ± 0.079
S41M	-0.285 ± 0.11
S41W	-0.207 ± 0.1
S41I	-0.161 ± 0.27
S41D	-0.007 ± 0.14
S41Y	-0.078 ± 0.098
S41H	-0.006 ± 0.17
S41E	0.076 ± 0.12
S41K	0.045 ± 0.15
S41L	-0.363 ± 0.1
S41T	-0.09 ± 0.088
S41V	-0.138 ± 0.095
S41F	-0.384 ± 0.14
S41Q	0.022 ± 0.059
V37W	-0.895 ± 0.15
V37T	0.091 ± 0.1
L38S	-0.065 ± 0.067
L38G	0.016 ± 0.057

Variant	abundance fitness
L38D	0.064 ± 0.12
L38A	-0.066 ± 0.069
L38C	-0.102 ± 0.1
L38R	0.029 ± 0.073
L38I	0.007 ± 0.16
L38P	0.012 ± 0.078
L38K	-0.141 ± 0.22
L38T	-0.055 ± 0.1
L38V	-0.045 ± 0.083
L38M	-0.035 ± 0.097
L38H	0.024 ± 0.15
L38W	0.153 ± 0.097
L38Q	-0.007 ± 0.17
L56Y	-0.207 ± 0.15
L56W	0.017 ± 0.07
L56H	0.13 ± 0.091
L56C	0.048 ± 0.12
L56K	0.035 ± 0.13
L56Q	-0.054 ± 0.15
L56A	0.056 ± 0.075
L56N	0.022 ± 0.28
L56G	0.016 ± 0.062
L56E	-0.024 ± 0.13
L56T	0.129 ± 0.11

Variant	abundance fitness
L56R	0.086 ± 0.071
L56D	0.294 ± 0.2
L56I	0.114 ± 0.15
L56F	0.093 ± 0.17
L56M	0.279 ± 0.12
L56P	0.124 ± 0.092
L56V	-0.027 ± 0.071
L56S	0.14 ± 0.071
R53M	-0.045 ± 0.099
R53W	-0.266 ± 0.11
R53Y	0.026 ± 0.24
R53V	-0.056 ± 0.088
R53Q	0.085 ± 0.12
R53H	0.062 ± 0.25
R53E	-0.046 ± 0.1
R53S	0.059 ± 0.092
R53I	-0.158 ± 0.18
R53K	0.038 ± 0.19
R53P	0.039 ± 0.091
R53G	0.015 ± 0.064
R53C	-0.137 ± 0.15
R53A	0.068 ± 0.12
